Here are results for one molecule from patent publication US11406665B2, “Therapeutic peptides that target TGF-beta interaction” (GENAGON THERAPEUTICS AB, priority 2017, dated 2022).

The subject of test [1] is MCF7 breast cancer cells. As to the kind of experiment: Western blot of PTP1B after ligand stimulation. Type of test: cell-based, human. As to conditions: ligand 10 ng/ml, vs untreated control. Background: A western blot detects proteins with antibodies after separation by electrophoresis.
For test [2], the system named is NK-92 cells. Kind of test: Proseek secreted proteins, NK-92 culture. The class given is cell-based. As to conditions: NK92 culture. The method, then: Secreted proteins from cell cultures where quantified using multiplexed proximity extension assay, Proseek (Assarsson E et al PlosOne 2014) by Olink Proteomics AB (Uppsala Sweden). Data is presented as Normalized Protein Expression (NPX log 2-scale). The Oncology I v2 92-plex panel was run. NK-92 cells were cultured in RPMI-1640 supplemented with 10% FBS, 12.5% Horse serum, L-glutamine, IL2 and 3-mercaptoethanol.

Test [3] deals with PBMC. Kind of test: Proseek secreted proteins, PBMC culture. Type of test: cell-based. The protocol:
Secreted proteins from cell cultures where quantified using multiplexed proximity extension assay, Proseek (Assarsson E et al PlosOne 2014) by Olink Proteomics AB (Uppsala Sweden). Data is presented as Normalized Protein Expression (NPX log 2-scale). The Oncology I v2 92-plex panel was run.
A cell suspension of heparinized peripheral blood was diluted 1:1 and placed on a Ficoll Paque Plus. Cells were centrifuged at 400×g for 30 minutes and the PBMC layer was transferred to a 50 ml tube of PBS and centrifuged for 7 min at 250×g.

B1: TGFb3: TGF-β isoform 3, ligand for CLPTM1 (protein)
chain: ALDTNYCFRNLEENCCVRPLYIDFRQDLGWKWVHEPKGYYANFCSGPCPYLRSADTTHSTVLGLYNTLNPEASASPCCVPQDLEPLTILYYVGRTPKVEQLSNMVVKSCKCS
Regarding B1, in test [1], the PTP1B level entry is “significantly reduced”. Moreover, in test [2], the Caspase-3 secretion result was “increased”. For the same molecule, in test [3], the CXCL9 secretion entry is recorded as “reduced” and the CXCL11 secretion entry is given as “reduced”.
